Molecular target: Dob3, ferritin-like diiron oxidase/oxygenase (FDO) of the dob gene cluster (Nocardia ninae)
Test: SEC; size-exclusion chromatography of purified Dob3; column and buffer not told in the text shown (Supplementary Figure 19)

- stoichiometry N: 2
Substance: Dob3, ferritin-like diiron oxidase/oxygenase (FDO) of the dob gene cluster (enzyme)

Reference: paper doi:10.1101/2025.05.24.655970
